Ends that are not written are not given here.
What follows are binders tested against T1, PD-L1, histidine (His)-tagged (UniProt Q9NZQ7 19-238) (assay: AlphaScreen or HTRF; AlphaLISA kit AL356 HV/C/F (PerkinElmer), competition: biotin-conjugated PD-1 on streptavidin-coated donor beads, His-tagged PD-L1 on anti-His acceptor beads; 2 uL each of inhibitor dilution, PD-L1 (25 nM), PD-1 (25 nM) and the two beads in 10 uL; 25 °C, 90 min; IC50 from sigmoidal fit). Conditions: both partners purified.
T1 construct: PD-L1 (programmed cell death-ligand 1) of the AlphaLISA PD-1/PD-L1 kit; Held on anti-His-conjugated acceptor beads; also called His-tagged PD-L1; programmed cell death-ligand 1; source: bought: PerkinElmer AlphaLISA assay kit (AL356 HV/C/F)
T1 sequence (Q9NZQ7 19-238): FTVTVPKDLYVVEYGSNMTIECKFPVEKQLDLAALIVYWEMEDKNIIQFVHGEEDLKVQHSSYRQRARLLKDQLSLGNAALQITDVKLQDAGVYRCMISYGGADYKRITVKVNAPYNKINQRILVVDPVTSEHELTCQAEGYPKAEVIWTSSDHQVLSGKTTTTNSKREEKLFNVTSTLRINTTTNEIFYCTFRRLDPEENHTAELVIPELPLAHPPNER

Compared with YCSE (not fully specified; X (position 1) = biphenyl-conjugated bromotyrosine) [XCSE], GYG (not fully specified; X (position 2) = biphenyl-conjugated bromotyrosine) [GXG] is 2.3-fold lower in IC50: 1560 µM for the first, 676 µM for the second.

First: ERYNK (not fully specified; X (position 3) = biphenyl-conjugated bromotyrosine) [ERXNK]
Second: CYR (not fully specified; X (position 2) = biphenyl-conjugated bromotyrosine) [CXR]
The IC50 of the first is 35-fold lower: 15.6 µM for the first, 550 µM for the second.

First: CYA (not fully specified; X (position 2) = biphenyl-conjugated bromotyrosine) [CXA]
Second: QYQ (not fully specified; X (position 2) = biphenyl-conjugated bromotyrosine) [QXQ]
The IC50 of the first is 2.9-fold lower: 665 µM for the first, 1960 µM for the second.

YRRRR (not fully specified; X (position 1) = biphenyl-conjugated bromotyrosine) [XRRRR] and WYG (not fully specified; X (position 2) = biphenyl-conjugated bromotyrosine) [WXG] are within 1.5-fold of each other in IC50: 436 µM for the first, 405 µM for the second.

NYR (not fully specified; X (position 2) = biphenyl-conjugated bromotyrosine) [NXR] and YNL (not fully specified; X (position 1) = biphenyl-conjugated bromotyrosine) [XNL] are within 1.5-fold of each other in IC50: 982 µM for the first, 855 µM for the second.

Going from YGGG (not fully specified; X (position 1) = biphenyl-conjugated bromotyrosine) [XGGG] to YNH (not fully specified; X (position 1) = biphenyl-conjugated bromotyrosine) [XNH], the IC50 falls from 6770 µM to 313 µM (22-fold).

Compared with WRYNQ (not fully specified; X (position 3) = biphenyl-conjugated bromotyrosine) [WRXNQ], YGGGG (not fully specified; X (position 1) = biphenyl-conjugated bromotyrosine) [XGGGG] is 4-fold higher in IC50: 163 µM for the first, 648 µM for the second. The first is the more potent here.

First: YGG (not fully specified; X (position 1) = biphenyl-conjugated bromotyrosine) [XGG]
Second: YGGGGG (not fully specified; X (position 1) = biphenyl-conjugated bromotyrosine) [XGGGGG]
The IC50 of the first is 7.7-fold higher: 6500 µM for the first, 846 µM for the second. The second is the more potent here.

Going from Tyr-Tyr-Cys (not fully specified (residue 2)) [YXC] to SYR (not fully specified; X (position 2) = biphenyl-conjugated bromotyrosine) [SXR], the IC50 rises from 465 µM to 796 µM (1.7-fold). The first is the more potent here.

RYN (not fully specified; X (position 2) = biphenyl-conjugated bromotyrosine) [RXN] and YHP (not fully specified; X (position 1) = biphenyl-conjugated bromotyrosine) [XHP] are within 1.5-fold of each other in IC50: 405 µM for the first, 359 µM for the second.

WRYNN (not fully specified; X (position 3) = biphenyl-conjugated bromotyrosine) [WRXNN] was tested, and the IC50 was 157 µM.

Reference: article PMC7279355 (International Journal of Molecular Sciences, 2020)
